Experimental data as given in patent publication US20190358302A1.

Biological target: cation independent mannose-6-phosphate receptor (CIMPR)
Experiment: immobilized CIMPR affinity column, elution with free M6P

% bound to CIMPR column: 90%
Substance: Fabrazyme (agalsidase beta) (from UniProt P06280 32-429) (enzyme)
